# Assay results as given in paper PMC6989145.
# Assays:
# [1] = target: murine perforin-2 (mPFN2) ectodomain (mouse) (UniProt A1L314); assay: cryo-EM structure; pre-pore oligomers formed in solution: 0.5 mg/ml in 50 mM citric acid buffer pH 5.5, 150 mM NaCl, 37°C overnight; purified by SEC (Superose 6); 0.01% Tween 20 added; C16 symmetry
# [2] = target: murine perforin-2 (mPFN2) ectodomain (mouse) (UniProt A1L314); assay: high-speed atomic force microscopy; PFN2 monomers (0.043 mg/ml) incubated 5 min directly on freshly cleaved mica; 20 mM Hepes-NaOH pH 7.5, 200 mM NaCl, 2 mM CaCl2
# [3] = target: murine perforin-2 (mPFN2) ectodomain (mouse) (UniProt A1L314); assay: high-speed atomic force microscopy; PFN2 monomers (0.043 mg/ml) incubated 5 min on a mica-supported E. coli lipid bilayer; 20 mM Hepes-NaOH pH 7.5, 200 mM NaCl, 2 mM CaCl2; subunit association and dissociation at incomplete rings, frames of 500 ms
# [4] = target: murine perforin-2 (mPFN2) ectodomain (mouse) (UniProt A1L314); assay: cryo-EM structure; pore: pre-pore sample lowered to pH 3.6 to 4.0 with 0.056% Cymal-6, room temperature, 30 min; C16 symmetry
substance,measurement,setting,value
murine perforin-2 (mPFN2) ectodomain (from UniProt A1L314 20-652) (domain or fragment),stoichiometry N,[1],16 subunits
same,stoichiometry N,[2],1 to 16 subunits
same,subunit association rate (subunits·s^−1),[3],2.4
same,stoichiometry N,[4],16
